Test results published in patent publication US20200164071A1 (GENSUN BIOPHARMA, published 2020).
Residue numbers refer to the chain shown, from its start.

B1: PD-04 (antibody, V domains shown)
VH: QVQLVQSGAEVKKPGASVKVSCKASDYTFTNSYIYWVRQAPGQGLEWMGGINPSNGGTNFNEKFKTRVTSTRDTSISTAYMELSRLRSDDTVVYYCARRDYNYDGGFDSWGQGTLVTVSS
VL: DIQMTQSPSSLSASVGDRVTFTCRASSSLYSNYLHWYQQKPGKAPKLLIYRASFLASGVPSRFSGSGSGTDFTLTISSLQPEDFATYYCQQGSSIPLTFGGGTKVEIK
notes: also called anti-PD-1 mab PD-04
B2: T-02 (antibody, V domains shown)
VH: QVKLQESGPGLVKPSQTLSLTCTVTGYSITSDYAWNWIRQPPGKGLEWIGYITYSGGTSYNPSLKSRVTISVDTSKNQFSLKLSSVTAADTAVYSCARRQIGLGFTYWGQGTLVTVSA
VL: DIQMTQSPSSLSASVGDRVTIPCKASQDLSTAVAWYQQKPGKAPKLLIYSSSYRYTGVPSRFSGSGSGTDFTLTISSLQPEDFATYYCQQSYSTPQQHYSTPWTFGEGTKLEIK
notes: Anti-human TIGIT monoclonal antibody from mouse hybridoma; also called anti-hu TIGIT mab T-02
B3: T-05 (antibody, V domains shown)
VH: EVQLKQSGAEVKKPGATVKISCKVSGYTFTDQAIHWVQQAPGKGLEWMGYIYPRDGSTKYNETFKGRVTITADTSTDTAYMELSSLRSEDTAVYFCARGMLRWFAYWGQGTLVTVSS
VL: DIQMTQSPSSLSASVGDRVTITCKASQDVSTAVAWYQQKPGKAPKLLIYSASYRYTGVPSRFSGSGSGTDFTLTISSLQPEDFATYYCQQHYSTPLTFGAGTKLELK
notes: Anti-human TIGIT monoclonal antibody from mouse hybridoma; also called anti-hu TIGIT mab T-05
B4: T-03 (antibody, V domains shown)
VH: B3 VH with K5V, Q32H, A33T, I51F, T63K, F95Y, R98T, Y106D, V113I, S117V
VL: B3 VL with A32T
notes: Anti-human TIGIT monoclonal antibody from mouse hybridoma; also called anti-hu TIGIT mab T-03
B5: T-06 (antibody, V domains shown)
VH: B2 VH with K3Q, T25S, Y27G, I29V, T30S, G57S, S95Y, I101V, T106A
VL: B3 VL with R54H, L96W, A100G, L106I
notes: Anti-human TIGIT monoclonal antibody from mouse hybridoma; also called anti-hu TIGIT mab T-06
B6: T-07 (antibody, V domains shown)
VH: EVQLQESGPGLVKPSDTLSLTCAVSGYSITSDSAWNWIRQPPGKGLEWIGYITYSGSTNYNPSLRSRVTMSVDTSKNQFSLKLSSVTAVDTAVYYCTRRQVGLGFAYWGQGTLVTVSA
VL: B3 VL with Y55F, V58A, A84G, T85I, Q90H, L96W, A100G, L106F
notes: Anti-human TIGIT monoclonal antibody from mouse hybridoma; also called anti-hu TIGIT mab T-07
B7: PD-06 (antibody, V domains shown)
VH: QVQLVQSGAEVKKPGASVKVSCKASGYTFTSYYIHWVRQAPGQRLEWMGWIFPGSGNSKYNENFKGRVTITRDTSASTAYMELSSLRSEDTAVYFCASETYDYGDYWGQGTLVTVSS
VL: DIQMTQSPSSLSASVGDRVTITCKASQNVGTNVAWYQQKPGKAPKSLIYSASYRYSGVPSRFSGSGSGTDFTLTISSLQPEDFATYFCQQYYSYPYTFGQGTKLEIK
notes: also called anti-PD-1 mab PD-06
B8: T-09 (antibody, V domains shown)
VH: QVTLKESGPTLVKPTQTLTLTCTFSGFSLSTFAMGVGWIRQPPGKALEWLAHIWWDDDKYYNPALKSRLTITKDTSKNQVVLTMTNMDPVDTATYYCARMDYSYFAWFAYWGQGTLVTVSS
VL: QAVVTQEPSLTVSPGGTVTLTCRSSTGAVTTSNYANWVQQKPGQLFRGLIGGTNNRAPWVPARFSGSLIGDKAALTLSGVQPEDEAEYFCALWYSNHWVFGGGTKLTVL
notes: Anti-human TIGIT monoclonal antibody from mouse hybridoma; also called anti-hu TIGIT mab T-09
B9: TP-M10T8P5 (TP-92) (bispecific antibody, human IgG4 S228P)
heavy: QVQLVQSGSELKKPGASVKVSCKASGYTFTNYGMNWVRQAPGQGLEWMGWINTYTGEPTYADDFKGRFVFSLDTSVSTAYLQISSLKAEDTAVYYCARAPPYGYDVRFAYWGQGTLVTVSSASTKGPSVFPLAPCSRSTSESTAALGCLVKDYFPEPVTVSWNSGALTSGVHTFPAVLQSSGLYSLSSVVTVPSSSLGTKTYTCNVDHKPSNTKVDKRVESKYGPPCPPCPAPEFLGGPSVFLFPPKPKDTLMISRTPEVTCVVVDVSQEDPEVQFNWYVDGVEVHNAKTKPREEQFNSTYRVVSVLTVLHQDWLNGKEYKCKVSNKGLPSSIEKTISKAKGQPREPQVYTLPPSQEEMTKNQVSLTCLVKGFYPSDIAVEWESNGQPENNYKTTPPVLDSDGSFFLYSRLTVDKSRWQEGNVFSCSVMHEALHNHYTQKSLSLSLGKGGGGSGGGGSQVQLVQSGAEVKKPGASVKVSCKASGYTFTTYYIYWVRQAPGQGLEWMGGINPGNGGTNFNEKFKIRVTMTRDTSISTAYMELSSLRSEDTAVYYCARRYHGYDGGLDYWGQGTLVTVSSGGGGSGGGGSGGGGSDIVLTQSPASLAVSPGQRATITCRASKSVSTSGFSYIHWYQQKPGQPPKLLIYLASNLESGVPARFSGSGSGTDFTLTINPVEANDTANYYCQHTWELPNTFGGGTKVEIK
light: DVVMTQSPLSLPVTLGQPASISCRSSQSIVHSNGNTYLEWFQQRPGQSPRVLIYKVSDRFSGVPDRFSGSGSGTDFTLKISRVEAEDVGVYYCFQGSHVPWTFGRGTKLEIK
notes: Anti-TIGIT x anti-PD-1; The tie is in embodiment wording ('about 80% to about 100% homologous to')

Columns and labels:
[1] = biological target: T1, human PD-1 on CHO-K1 cells (human, UniProt Q15116 25-288); test: flow cytometry blocking assay: FITC human PD-L1-Fc on human PD-1 CHO-K1 cells (Example 11; the legend paragraph 42 calls it binding to hu PD-L1)
T1 construct: also called Human PD-1 transfected CHO-K1 cells
T1 sequence (Q15116 25-288): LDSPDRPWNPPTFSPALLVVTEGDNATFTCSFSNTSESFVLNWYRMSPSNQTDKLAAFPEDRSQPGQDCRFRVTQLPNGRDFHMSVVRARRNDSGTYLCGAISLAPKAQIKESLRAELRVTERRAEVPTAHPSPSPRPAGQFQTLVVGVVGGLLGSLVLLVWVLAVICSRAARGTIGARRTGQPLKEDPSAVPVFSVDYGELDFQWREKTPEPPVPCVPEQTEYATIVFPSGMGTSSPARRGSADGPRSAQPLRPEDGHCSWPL
Protocol: (§1) Human or Cyno PD-1 transfected CHO-K1 cells were washed with FACS buffer (0.5% BSA 2 mM EDTA in PBS) and re-suspended at a concentration of 10⁶ cells/ml. […] The cells were then washed and re-suspended in 30 μl 7 AAD solution; 35 μl 10% neutral buffered formalin solution was then added and incubated for 15 mins. before analysis using the iQue intellicyt system.

[2] = biological target: T2, cyno PD-1 on CHO-K1 cells (cyno); test: flow cytometry blocking assay of Example 11, PD-L1 on cyno PD-1 CHO-K1 cells; cyno taken from the legend paragraph 42 ('cyno-hu'), while Example 11 speaks of human PD-1 and human PD-L1 for this figure
T2 construct: whole, on cells; also called cyno hu PD-1; Cyno PD-1 transfected CHO-K1 cells
Protocol: as §1

[3] = biological target: T3, human TIGIT on CHO-K1 cells (human, UniProt Q495A1 23-244); test: flow cytometry competition with biotinylated hPVR-mIg on CHO-K1 cells expressing human TIGIT
T3 construct: also called hu TIGIT; TIGIT+CHO-K1 cells
T3 sequence: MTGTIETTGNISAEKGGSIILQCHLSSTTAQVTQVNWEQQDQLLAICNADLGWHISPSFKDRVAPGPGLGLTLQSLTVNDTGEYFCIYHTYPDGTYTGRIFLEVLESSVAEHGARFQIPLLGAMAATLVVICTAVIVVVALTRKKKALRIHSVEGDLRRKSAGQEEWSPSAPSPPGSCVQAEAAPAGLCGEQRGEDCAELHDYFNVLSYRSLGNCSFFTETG
Protocol: The cells were washed 2 times before staining with PE streptavidin (BioLegend) for 20 min at 4 C. The cells were then washed, resuspended in 30 μl 7 AAD solution, and 35 μl of 10% neutral buffered formalin solution was added. The cells were then incubated for 15 min. Flow cytometry was performed and IC50 was calculated using iQue intellicyt system.

[4] = biological target: T3, human TIGIT on CHO-K1 cells; test: flow cytometry blocking assay: PVR (hPVR-mIg, m14, by Examples 4 and 6) on human TIGIT CHO-K1 cells (Example 16); title: Blocking PVR binding to TIGIT

Row | IC50 [3] [nM] | other results | Binder
1 | – | IC50 [1]: 0.82 nM; IC50 [2]: 2.15 nM | B1
2 | 0.35 to 0.71 | – | B2
3 | 0.2 to 0.46 | – | B3
4 | 0.26 to 0.52 | – | B4
5 | 0.84 | – | B5
6 | 0.5 | – | B6
7 | – | IC50 [1]: 0.65 nM; IC50 [2]: 2.14 nM | B7
8 | 0.36 to 0.42 | – | B8
9 | – | IC50 [4]: 0.4 nM | B9
